Test: yeast display, Sf9 membrane polyspecificity reagent, FACS + sequencing; frameworks hold sequencing errors
Method in brief: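 A nanobody's polyreactivity label depends on the gate it was sorted from. Yeast display cells were stained with 10% biotinylated, detergent-solubilized Sf9 membrane reagent for 1 hour at 4 °C, enriched on streptavidin microbeads and sorted by FACS. The low and high (top ~1%) gates were set on anti-HA fluorescence for expression and streptavidin fluorescence for reagent binding.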

Row | Sequence | polyreactivity (PSR sort gate)
1 | QVQLVESRGCLVQAGGSLRLSCAASGRTFYRYVMGWYRQAPGKEMELVAAISEGGGSTFYADSVKGRFTISRDNAKNTDYLQMNSLKPEDTAVYYCAADYYVRGGFFRYDYWGQGTQVTVSS | low polyreactivity
2 | QVQLVESRGCLVQPGGSLLLSCAASGIIFGHYVMGWYRQAPGKERELVAAISSRGGNTYYADSVKGRFTISRDNAKNTVYLQMNSLKPEDTAVYYCAADRYATPMDYWGQGTQVTVSS | high polyreactivity
3 | QVQLVESRGGIVQAGGSLRLISAASGRTFGWNAKGWYRQERGKERELVAAISLRGTSTYYADSVKGRFTISRDNAKNTVYLQMNSLKPEDTAVYYCNTLVYVPYHEDYWGQGTQVTVSS | high polyreactivity
4 | QVQLVESRGGLVQAARSLRLSFAASGSIFSSNAMGWYRQAPGKERELVAAITSVGSTTYADSVKGRFTISRDNAKNTVYLQMNSLKPEDTAVYYFAADPVYRYYHGWTYVDYVYWGQGTQVTVSS | low polyreactivity
5 | QVQLVESRGGLVQAGASLRLSCAASALIFGYYAMGCYRQAPVKEREFVAAIDGSDGTTYYADSVKGRFTIARDNAKNTVYLQMNSLKPEDTAVYYCNADSSSYSSDLGYDYWGQGTQVTVSS | low polyreactivity
6 | QVQLVESRGGLVQAGCSLRLRCAASGYIFYGYDKGWYRPAPGKERELVAGITYSGGGGTHYADSVKGRFTISRDNAKNTVYLQMNSLKQEDRGVYYCAKADPQLNRTYYSYGMDSWGQGTQVTVSS | low polyreactivity
7 | QVQLVESRGGLVQAGGILRLSCAACGSTFPKYAMGWYRQAPGKERELVAAITGISGRTYYADSLKGRFTISRDNAKNTVYLQMNSLKPEDTAVYYCNARIFAGWSIYNYWGQGTQVTVSS | high polyreactivity
8 | QVQLVESRGGLVQAGGSLRISCAASGRIFGYNAMGWYRQAPGKERELVAAISASGGRTYYADSVKARFTISRDNAKNTVYLQMNSLKPEDTAVYYCATKYRSFYSYDYWGQGTQVTVSS | high polyreactivity
9 | QVQLVESRGGLVQAGGSLRLICAASGFILDTSAMGWYRQAPGKERALVAAISASGSSTYYADSVKGRFTISRDNAKNTLYLQMNSLKPEDTAVNYCAAKDTGYGYGFPRLDYWGQGTQVNVSS | low polyreactivity
10 | QVQLVESRGGLVQAGGSLRLSCAASGFIFGVNAMGWYRQAPGKERELVAAITRNGGSTYYADSVKGRFTISRDYAKNSVYLQMNSLKPEDTAVYYCAKYVRRAPSTFDVDYWGQGTQVTVSS | high polyreactivity
11 | QVQLVESRGGLVQAGGSLRLSCAASGFTFPFYAMGSYRQAPGKERELVAAISISGGSTHYADSVKGRFTISRDNAKNTVYLQMNSLKPEDTAVYYCAAEYGVVIYIDGWYPTLHEYYYSGQGTQVTVSS | high polyreactivity
12 | QVQLVESRGGLVQAGGSLRLSCAASGFTFRYYAMGWYRQAPGKERELVARITRCASTSYADSVKGRFTISRDNAKNTVYLLMISLIPEDTAVYYCAADSPAGGYVFPELPYDYWGQGTQVTVSS | low polyreactivity
13 | QVQLVESRGGLVQAGGSLRLSCAASGFTIDTYAMGWYRQAPGKERELVAGISWSGGSTYYADSVKGRFTISRDNAKNTVYLQMNSLKPEDTAVYYCNARDYSVGRYDYWGQGTQVTVSS | low polyreactivity
14 | QVQLVESRGGLVQAGGSLRLSCAASGIIFFKYAMGWYRQAPGKERELVAAISIDGSTNYADSVKGRFTISRDNAKNTVYLQMNSLKPEDTAVYYCNAKRYGFFYWQGDYWGQGTQVTVSS | low polyreactivity
15 | QVQLVESRGGLVQAGGSLRLSCAASGITFRTYSMGWYRQAPGKERELVAGIRTRTGSTYYADSVKGRFTISRDNAKNTVYLQMNSLKPEDTAVYYCAAKGSGYYGRQRIYSYTYDYWGQGTQVTVSS | high polyreactivity
16 | QVQLVESRGGLVQAGGSLRLSCAASGITFTRNVMGWYRPAPGKERELVAGISRSGGRTYYADSVKGRFTISRENAKNTVYLQMNSLKPEDTAVYYCAADYSRRTRVDDDYDYWGQGTQVTVSS | high polyreactivity
17 | QVQLVESRGGLVQAGGSLRLSCAASGLIFGFNTMGWYRQAPGKERELVAAITSGGGSTYYADSVKGRFTISRDNAKNTVYLQMNSLKPEDTAVYYCNAGGGRWRARQWHDYWGQGTQVTVSS | low polyreactivity
18 | QVQLVESRGGLVQAGGSLRLSCAASGLIFRHYAMGWYRQAPGKERELVAAITGSGSTYYADSVKGRFTISRDNAKNTVYFQMNSLKPEDTAVDYCAATVYSSGAMDYWGQGTQVTVSS | low polyreactivity
19 | QVQLVESRGGLVQAGGSLRLSCAASGRIFASYTMGWYRQAHGKERELVAAISWRGDGTYYADSVKGRFTISRDNAKNTVYLQMNSLKPEDTAVYYCAADYVYYYHEYDYWGQGTQVTVSS | low polyreactivity
20 | QVQLVESRGGLVQAGGSLRLSCAASGRIFSWYSMGWYRQPPGTERELVAGISWIGGSTYYADSVKGRFTFSRDNAKNTVYLQMISLKPEDTAVYYCNAEYFGEYRDYGYWGQGTQVTVSS | low polyreactivity
21 | QVQLVESRGGLVQAGGSLRLSCAASGRNFRFNAMGWYRQEPGKERELVAAISASGGITYYADSVKGRFTISRDNAKNTVYLQMNSLKPEDSAVYYCAADLYATWSYFFTWLDNWGQGTQVTVSS | high polyreactivity
22 | QVQLVESRGGLVQAGGSLRLSCAASGRTFSNAMGWYRQAPGNERELVADISSGGSTNYADSVKGRFTISRDNAKNTVYLQMNSLKPEDTAVYYCAAVSGSRYGYSDDYWGQGTQVTVSS | low polyreactivity

Row | Sequence | polyreactivity (PSR sort gate)
23 | QVQLVESRGGLVQAGGSLRLSCAASGRTFWYKAMGWYRQAPGKERELVAAISKSAAITYYADSVKGRFTISRDNAKNTVYLQMNSLKPEDTAVYYCNAGVRAVNRKYDYWGQGTQVTVSS | high polyreactivity
24 | QVQLVESRGGLVQAGGSLRLSCAASGSIFLYYARGRSRQSPGKERELVAAIRRGGNTNYADSVKGRFTISRDNAKNTVYLQLNSLKPEDTAVYYCAAAQYSRYSRVPNYYAGTYYYWGQGTQVTVSS | low polyreactivity
25 | QVQLVESRGGLVQAGGSLRLSCAASGSIFPFYAKGWYRQAPGKEREFVASISSGGSTNYADSVKGRFTISRDNAKNTVYLQMNSLKPEDTAVYYCNADVPYRWDTWFQVVYPESYDYWGQGTQVTVSS | low polyreactivity
26 | QVQLVESRGGLVQAGGSLRLSCAASGSIFRSNGMGWYRQPPGTERELVAAIRTSGGSTNYADSVKGRFTISRDNAKNTVSLQMNSLKPEDTAVYYCNTRDRGLGMMEYWGQGTQVTVSS | low polyreactivity
27 | QVQLVESRGGLVQAGGSLRLSCAASGSIFWLYAMGLYRQAPGKERELVAAIDSGDSTKYADSVKGRFTISRDNAKNTVYLQMNSLKREDTAVYYCNASRRYHVLAPYDYWGQGTQVTVSS | low polyreactivity
28 | QVQLVESRGGLVQAGGSLRLSCAASGSIFYDNAMGWYRQAPWKEREFVAAISLRTGRTYYADSVKGRFTISRDNAKNTVYLQMNSLKPEDTAVFYCAARGYYGPKYYYWGQGTQVTVSS | high polyreactivity
29 | QVQLVESRGGLVQAGGSLRLSCAASGSTFRRYAMGWYRQAPGKERELVAAITTRGGSTYYADSVKGRFTISRDNAKNTVYLQMNSLKPEDTAVYYCARDYSTYLRTAGDYWGQGTQVTVSS | low polyreactivity
30 | QVQLVESRGGLVQAGGSLRLSCAASGSTFYLNVMGWYIQAPGKERELVAAITYRGGRTSYADSVKGRFTISRDNAKNTVYLQMISLKPEDTAVYYCATPKYYGYYYWGHGTQVTVSS | high polyreactivity
31 | QVQLVESRGGLVQAGGSLRLSCAASGSTFYRYAMAWYRQAPGKERELVARINTGGSTSYADSVKGRFTISRDNAKNTVYLQMNILKPEDTAVYYCAASSRYAVFGRYYYCGQGTQVTVSS | high polyreactivity
32 | QVQLVESRGGLVQAGGSLRLSCAASGYAMGWYRQAPGKERELVAAITSGGSTNYADSVKGRFTISRDNAKNTVYLQMNSLKPVDTAVYYCAAAYSLYGHRYDYWGQGTQVTVSS | high polyreactivity
33 | QVQLVESRGGLVQAGGSLRLSCAASGYIFGYTVMGWYRQAPGTERELVATITRGGDTNYADSVKGGFTISRDNAKNTVYLQMNSLKPEDSSVYYCAAEPVAYYGSSYGYWGQGTQVTVSS | low polyreactivity
34 | QVQLVESRGGLVQAGGSLRLSCAASRSIFNINTMGWYRQAPGKERELVAAISYSGGSTYYADSVKGRFTISRDNAKNTVYLQKNSLKREDTAVYYCNVSPTTSGDGGGYDSWGQGTKVTVSS | low polyreactivity
35 | QVQLVESRGGLVQAGGSLRLSCAASVSIVGIYVMGRYRQAPGKERELVAGISTRGGSTYYADSVKGRFTIARDNAKNTVYLQMNSLKPEDTAVYYCAVRAWDPYTGKSDYWGQGTQVTVSS | low polyreactivity
36 | QVQLVESRGGLVQAGGSLRLSCPASGYIFYRNAMGWYRQEPGKERELVAAITYTGGRTYYPDSVKGRFTISRDNAKNTVYLQMNSLNPEDTAVYYCNADGRVFVVRPYYDYEYWGQGTQVTVSS | low polyreactivity
37 | QVQLVESRGGLVQAGGSLRLTCAASGFTFGFYGMGWYRPAPGKERELVARITWRSGSTYYADSVKGRFTISRDNAKNSVYLKLNSLKPEDTAVYSCAADGFSYYVIRFDYWGQGTQVTVSS | low polyreactivity
38 | QVQLVESRGGLVQAGGSLSLSCAASGRIFYIYDMGWYRQAPGKERELVAAISTSGGSTFYADSVKGRFTISRDNAKNTVYLQMNSLKPEDTAVYYCAARFRYYGSEYDYWGQGTQVSVSS | low polyreactivity
39 | QVQLVESRGGLVQARGSLRLSSAASGRIFSDYAMGCYRQAPGKERDLVATISGGITNYADSVKGRFTISRDNANNTVYLQMNSLKPEDTAVYYCATVDGAYQYTYDYWGEGTQVTVSS | low polyreactivity
40 | QVQLVESRGGLVQEGGSLRLSCAASGRIFSVYAMGSYRQEPGKERELVASISSGGSTYYADSVMWRFTISRDNAKNTVYLQRTSQKAEDTAVYYCAAGYWTTFRSIYDYWGQGTQVTVSS | low polyreactivity
41 | QVQLVESRGRLVQAGGTLRLSCAASGNITSVYAMGWYRQAPGNERELVAAISGSGGSTYYADSVKGRFTISRDNAMNTVYLQMNSLKPEDTAVYYCAKGFQYQGNSYGYWGQGSQVTVSS | low polyreactivity
42 | QVQLVESRGVLVQAGGSLRLSCAASGYIFAPYAMGWYRPAPGKERELVSAISWRGGSTYYADSVKGRFTISRDNAKITVYLQMNSLKPVDTAVYFCAAQGYGSGLSYYRFDFWGLGTQVTVSS | high polyreactivity
43 | QVQLVESRRGLVPAGGSLRLSCARCGITVPAYAMGWYRQAPGKERELVASISRRGGSTYYADSVKGRFTISRDNAKNTVYLQINSLKPVDTAVYYCNADIKQRSDRYDYWGQGTQVTVSS | high polyreactivity

Source: the nanobody polyreactivity screen of Harvey et al. (2022)
